One test relates to PLR59. As to the kind of experiment: Differentiation-enhancing effect of BMP4 (CK20 expression, quantitative real-time PCR). To be noted: BMP4 20 nM; irinotecan-non-treated and irinotecan-treated PLR59 (FIG. 73A). The test is classed as cell-based, human. As to the method: (§1) BMP4 was assessed for the differentiation-enhancing effect on irinotecan-non-treated and irinotecan-treated PLR59 and PLR123. To assess the differentiation-enhancing effect on irinotecan-non-treated cells, PLR59 and PLR123 cells suspended in the media where BMP4 (R&D Systems; a final concentration of 20 nM) or a control buffer was added to culture media were seeded at a cell density of 5×10^5 cells/1.5 ml/well to each well of a 12-well plate. The cells were passaged while changing the culture media with the same type of medium 2, 4, and 7 days after seeding. To assess the differentiation-enhancing effect on irinotecan-treated cells, PLR59 or PLR123 was seeded at a cell density of 17×10^5 cells/5 ml/flask to a 12.5-ml culture flask. Following day, irinotecan was added at a final concentration of 15 μM. The flask was incubated at 37° C. for 72 hours in a CO2 incubator. Then, the medium in the flask was changed with a medium containing BMP4 or a control buffer. The medium was further changed with the same type of medium 2, 4, and 7 days after the initial medium change. […]
(§2) Quantitative real-time PCR was carried out using the cDNAs isolated as described above.
In general terms: Real-time PCR tracks product formation cycle by cycle.

The next test deals with PLR123. The description is as above. To be noted: BMP4 20 nM; irinotecan-non-treated and irinotecan-treated PLR123 (FIG. 73B). The format is cell-based, human. As for the experimental part:
as §1, §2

The test system of test [1] is irinotecan-non-treated PLR123. As to the kind of experiment: Internalization activity / anti-tumor effect with Mab-ZAP or Rat-ZAP (CellTiter-Glo). To be noted: with Mab-ZAP or Rat-ZAP 1 μg/ml, 72 hours. The format is cell-based, human. As for the experimental part: (§3) Mab-ZAP and Rat-ZAP are anti-mouse IgG antibody and anti-rat IgG antibody, respectively, conjugated with saporin, a toxin that inhibits protein synthesis (Advanced Targeting Systems). To assess the activity of internalization into irinotecan-non-treated cells, PLR59 and PLR123 cells were seeded at a cell density of 30000 cells/80 μl/well to respective wells of a 96-well plate. Following day, each antibody solution was added at a final concentration of 0.01, 0.1, or 1 μg/ml to the respective wells. Then, Mab-ZAP or Rat-ZAP was added at a final concentration 1 μg/ml to the respective wells, and the plate was incubated at 37° C. for 72 hours in a CO2 incubator. To assess the activity of internalization into irinotecan-treated cells, PLR59 and PLR123 cells were seeded in a 96-well plate, and irinotecan was added at a final concentration of 15 μM to each well. The plate was incubated at 37° C. for 72 hours in a CO2 incubator. Various antibodies were assessed for the activity of internalization to cells cultured as described above in the presence or absence of irinotecan. For assay, the various antibodies were each assessed for the internalization activity into cells contained in each well where the medium was replaced with the same irinotecan-free medium as used for irinotecan-non-treated cells. Seventy-two hours after addition of antibodies and Mab-ZAP or Rat-ZAP, 10 μl of 3% SDS (Nacalai Tesque) was added to each well of the plate. The cells in the plate were lysed thoroughly by stirring the plate using a plate mixer. Then, 100 μl of CellTiter-Glo™ Luminescent Cell Viability Assay (Promega) was added to each well. The mixture in each well was assayed to determine its luminescent signal. […] In Table 14, symbols, −, +, ++, and +++, represent relative values for the internalization activity when a test antibody was assayed at a concentration of […]. […] Symbols, −, +, ++, and +++, indicate that the relative value is less than 5%, 5% or more and less than 15%, 15% or more and less than 25%, and 25% or more, respectively.
For orientation: Cellular ATP, detected with luciferase, serves as a proxy for viable cell number.

Test [2] has as its system irinotecan-treated PLR123. The description is as above. The test is classed as cell-based, human. The conditions noted are these: PLR123, Irinotecan-treated (15 μM, 72 hours). As for the experimental part:
as §3

The test system of test [3] is irinotecan-non-treated PLR59. The test is described as above. The test is classed as cell-based, human. To be noted: with Mab-ZAP or Rat-ZAP 1 μg/ml, 72 hours. As for the experimental part: as §3
The next test concerns irinotecan-treated PLR59. The test is described as above. To be noted: PLR59, Irinotecan-treated (15 μM, 72 hours). The format is cell-based, human. As to the method: as §3
In test [4] the test system is irinotecan-non-treated PLR123. Nature of the test: Flow cytometry (FCM) binding activity of commercially available antibodies to cell-surface antigens. Set-up: species or system human. To be noted: with antibody. As to the method:
(§4) The present inventors tested whether an anti-tumor effect can be expected with target therapy using a membrane protein expressed at a high level as the target in irinotecan-treated or non-treated PLR59 and PLR123. Commercially available antibodies shown in Table 12 were assessed by flow cytometry (FCM) for the binding activity to antigens expressed on the cell surface of irinotecan-treated or non-treated PLR59 or PLR123.
On the technique in general: A flow cytometer gives signals particle by particle.

The test system of test [5] is irinotecan-non-treated PLR59. Described as above. Set-up: species or system human. The conditions noted are these: with antibody. As for the experimental part: as §4

B1: BMP4: bone morphogenetic protein 4, polypeptide of SEQ ID NO: 4 (R&D Systems) (protein, listed as Homo sapiens)
chain: MIPGNRMLMVVLLCQVLLGGASHASLIPETGKKKVAEIQGHAGGRRSGQSHELLRDFEATLLQMFGLRRRPQPSKSAVIPDYMRDLYRLQSGEEEEEQIHSTGLEYPERPASRANTVRSFHHEEHLENIPGTSENSAFRFLFNLSSIPENEVISSAELRLFREQVDQGPDWERGFHRINIYEVMKPPAEVVPGHLITRLLDTRLVHHNVTRWETFDVSPAVLRWTREKQPNYGLAIEVTHLHQTRTHQGQHVRISRSLPQGSGNWAQLRPLLVTFGHDGRGHALTRRRRAKRSPKHHSQRARKKNKNCRRHSLYVDFSDVGWNDWIVAPPGYQAFYCHGDCPFPLADHLNSTNHAIVQTLVNSVNSSIPKACCVPTELSAISMLYLDEYDKVVLKNYQEMVVEGCGCR
For B1, the CK20 expression level result with PLR59 and in the test on PLR123 was “elevated CK20 levels” each time.

B2: EPCAM (protein)
chain: QEECVCENYKLAVNCFVNNNRQCQCTSVGAQNTVICSKLAAKCLVMKAEMNGSKLGRRAKPEGALQNNDGLYDPDCDESGLFKAKQCNGTSMCWCVNTAGVRRTDKDTEITCSERVRTYWIIIELKHKAREKPYDSKSLRTALQKEITTRYQLDPKFITSILYENNVITIDLVQNSSQKTQNDVDIADVAYYFEKDVKGESLFHSKKMDLTVNGEQLDLDPGQTLIYYVDEKAPEFSMQGLKAGVIAVIVVVVIAVVAGIVVLVISRKKRMAKYEKAEIKEMGEMHRELNA
With B2, the internalization activity level entry (in test [1]; in test [2]; in test [3]; in the test on irinotecan-treated PLR59) was “+++ (25% or more)” throughout. In addition, the “binding activity by flow cytometry (FCM), Antibody +” value in test [4] came out at 7701; in test [5], 7563.

These data come from US10934351B2, “Cancer stem cell-specific molecule” (CHUGAI SEIYAKU KABUSHIKI KAISHA, priority 2011, dated 2021).
